The assay addresses T1, unmodified Dictyostelium Skp1A (Dictyostelium discoideum), P52285.
T1 chain: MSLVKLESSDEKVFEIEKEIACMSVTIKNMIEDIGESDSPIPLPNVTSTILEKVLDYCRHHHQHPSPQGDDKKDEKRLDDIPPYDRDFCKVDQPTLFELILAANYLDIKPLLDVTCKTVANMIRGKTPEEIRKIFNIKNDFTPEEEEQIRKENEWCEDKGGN
The experiment in a line: SAXS. Particulars: remark: other sources report otherwise.

As a reminder, the stoichiometry N is a count of units in the complex or per binding partner.

B1: unmodified Dictyostelium Skp1A, P52285 1-162 (natural protein)
chain: T1 chain
On to B1, for which the stoichiometry N is 2.
